The record followed here is paper PMC5942779, “Identification of a peptide inhibitor for the histone methyltransferase WHSC1” (PLoS ONE, 2018).

The target of one test is WHSC1 941–1240 (UniProt O96028).
A further test has as its target WHSC1L1 1054–1285 (UniProt O96028).

WHSC1 941–1240, sequence (O96028 941-1240): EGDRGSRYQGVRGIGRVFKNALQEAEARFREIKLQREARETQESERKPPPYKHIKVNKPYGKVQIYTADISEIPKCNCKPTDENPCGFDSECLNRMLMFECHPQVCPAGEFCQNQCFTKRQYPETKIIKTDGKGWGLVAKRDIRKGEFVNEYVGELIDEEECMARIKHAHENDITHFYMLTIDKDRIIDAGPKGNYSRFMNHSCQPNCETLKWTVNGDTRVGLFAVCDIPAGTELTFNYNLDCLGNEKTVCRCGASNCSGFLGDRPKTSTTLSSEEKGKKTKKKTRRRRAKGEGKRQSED
WHSC1L1 1054–1285, sequence (O96028 1054-1285): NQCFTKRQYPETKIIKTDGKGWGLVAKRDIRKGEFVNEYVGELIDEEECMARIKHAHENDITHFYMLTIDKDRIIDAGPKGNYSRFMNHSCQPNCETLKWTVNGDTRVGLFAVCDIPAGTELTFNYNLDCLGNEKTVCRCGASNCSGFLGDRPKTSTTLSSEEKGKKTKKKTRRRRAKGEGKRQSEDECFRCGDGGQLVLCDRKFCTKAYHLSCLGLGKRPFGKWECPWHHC

B1: PTD3 (peptide)
peptide: Ac-GVARI-NH2
B1 gave a Biochemical IC50: inhibition of 3H-methyl transfer from SAM to the biotinylated H4 peptide by WHSC1 941–1240 with WHSC1 941–1240 of 640 µM. Moreover, in the test with WHSC1L1 1054–1285, the Biochemical IC50: inhibition of 3H-methyl transfer from SAM to the biotinylated H4 peptide by WHSC1L1 1054–1285 was > 1000 µM.
